Measured values published in patent publication US20260124223A1, “CANCER IMMUNOTHERAPIES” (Northwestern University, priority 2022, published 2026).
Values joined by “and” are separate entries in the source; they are usually repeats but may differ in a detail not shown here. Equal entries are not always repeated.

Legend:
[1] = mouse, in vivo
Experimental: C57BL/6 mice were employed for sonication experiments in which they were anesthetized with ketamine/xylazine cocktail intraperitoneally (ketamine 100 mg/kg, xylazine 10 mg/kg).
Determination of the concentration of nivolumab in brain from C57BL/6 mice. Non-tumor bearing C57BL/6 mice were used for this experiment. […] Nivolumab ELISA kit (ab237651, Abcam) was employed to determine nivolumab concentrations in the brain and blood. Mice were anesthetized with ketamine/xylazine cocktail and treated with artificial tears once fully anesthetized. Next, mice were treated with nivolumab through retro-orbital route. The dose used for mice was calculated based on allometric scaling which considers the animal equivalent dose based on body surface area converted from the human dose of 3 mg/kg of nivolumab (Nair, A. B. et al., J Basic Clin Pharm 7, 27-31 (2016)). After treatment with nivolumab, mice were placed in the US transducer holder for sonication as described above. Intravenous NaFI (Sigma-Aldrich) previously dissolved in PBS was administered immediately after sonication at a dose of 20 mg/kg in 100 μL. 1 and 4 hours after sonication, mice were euthanized using a CO2 chamber and brains were harvested and placed in PBS. […] Absorbance of samples (set to 450 nm) was read in Cytation 5 multi-mode reader (Biotek). […]

[2] = system: brain metastases from melanoma; assay: Tumor volume in a melanoma brain metastasis patient, SonoCloud-1 (NCT04021420); type: in vivo, human
Description: Analysis of SoniMel tumor volume of a brain metastatic patient. This patient was part of an ongoing clinical trial (NCT04021420) evaluating the combination of the immune checkpoint antibodies, ipilimumab and nivolumab, with BBB disruption employing the SC1 US device. The zone targeted by the skull implanted SC1 US emitter was modeled with a cylindrical region of interest (ROI) with a 10-mm diameter and 55-mm length. This ROI covered a part of the left-hemisphere tumoral mass and a part of its margin. The patient received administration every three weeks of 1 mg/kg of nivolumab (Brystol Myers Squibb) during 30 minutes of infusion and 3 mg/kg of ipilimumab (Brystol Myers Squibb) during 90 minutes of infusion prior to sonication. The SC1 US device was activated in combination with IV injection of microbubbles (0.1 mL/kg, SonoVue, Bracco) for a duration of 270 seconds at an acoustic pressure of 0.78 MPa, similar to the parameters used in a recent clinical trial in patients with recurrent GBM (Idbaih, A., et al., Clin Cancer Res 25, 3793-3801 (2019)). The evolution of the tumor volumes was evaluated for both sonicated and non-sonicated tumor masses using a semiautomatic active contour segmentation method (ITK Snap) (Yushkevich, P. A., et al., Neuroimage 31, 1116-1128 (2006)) using contrast-enhanced gadolinium T1w MR images with a threshold set at 1.25 times the median brain intensity. […]

[3] = Pembrolizumab concentration in plasma, glioma and peritumoral brain of GBM patients (ELISA); type: in vivo, human
Experimental: Patients received additional treatment cycles with sonications in an outpatient setting in which the US device was activated by percutaneous access with a single-use transdermal needle concomitantly with the injection of 10 μL/kg of IV microbubbles (DEFINITY, Lantheus, Billerica, USA) and 200 mg of pembrolizumab and 30 mg of liposomal DOX.
Determination of the concentration of pembrolizumab in human glioma and peritumoral brain tissue Two GBM patients undergoing surgery for resection of tumor with implantation of the Sonocloud-9 US device were studied for this analysis. Pembrolizumab ELISA kit (ab237652, Abcam) was employed to determine pembrolizumab concentrations. After surgical resection, all samples were weighed. […] The rest of the experiment was done following manufacturer's kit protocol.

nivolumab: human IgG4 antibody that binds the PD-1 receptor
nivolumab concentration in the plasma [1]: similar

ipilimumab: IgG1 anti-CTLA-4 antibody, given with nivolumab
tumor mass targeted by the SonoCloud-1 (sonicated) ([2]; ipilimumab 3 mg/kg and nivolumab 1 mg/kg prior to sonication): began to shrink after the second sonication | non-sonicated tumor mass ([2]; ipilimumab 3 mg/kg and nivolumab 1 mg/kg, until GammaKnife on day 130): continued to grow

pembrolizumab: anti-PD-1 antibody
fold increase in pembrolizumab concentration, sonicated vs non-sonicated peritumoral brain regions ([3]; 2 GBM patients, SonoCloud-9): 2.076 fold | anti-PD-1 antibody concentration in the serum ([3]; two GBM patients, 48 hours after treatment): 39.450 µg/mL and 45.099 µg/mL
